Data taken from article PMC10070764, “S100B chaperone multimers suppress the formation of oligomers during Aβ42 aggregation” (Frontiers in Neuroscience, 2023).
Blank lines part the entries; values can stand above or below the binder they belong to.

What was measured:
[1] = molecular target: amyloid-β 1–42 (Aβ42) peptide (UniProt P05067 672-713); experiment: cell-based or functional assay
[2] = molecular target: the molecule itself; experiment: SEC + other: electrophoresis; oligomeric state validation of the purified S100B dimer and tetramer preparations, as described (Figueira et al., 2022); conditions not given

amyloid-β 1–42 (Aβ42) peptide, sequence (P05067 672-713): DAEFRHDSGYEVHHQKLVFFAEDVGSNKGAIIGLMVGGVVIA

- ThT-subtracted X-34 kinetic traces of Aβ42 (2 μM) aggregation: X-34 positive AβO relative to Aβ42 alone, apo-S100B tetramer:Aβ42 ratios up to 0.5 (effect already at 0.25) [1]: 25%
B1: tetrameric S100B (natural protein, human, UniProt P04271 1-92, looked up)
chain: MSELEKAMVALIDVFHQYSGREGDKHKLKKSELKELINNELSHFLEEIKEQEVVDKVMETLDNDGDGECDFQEFMAFVAMVTTACHEFFEHE
notes: Same chain as m1, isolated as the tetramer; used in the aggregation assays in the Ca^2+-free (apo) state (1.1 mM EDTA); also called apo-S100B tetramer; tetrameric apo-S100B; source: E. coli BL21 (DE3) E. Cline Express, purified to homogeneity
- stoichiometry N [2]: 4

B2: dimeric S100B (natural protein, human, UniProt P04271 1-92, looked up)
chain: B1 chain
notes: also called S100B-Ca^2+ dimer; dimeric S100B-Ca^2+; source: E. coli BL21 (DE3) E. Cline Express, purified to homogeneity
- stoichiometry N [2]: 2
